The text below walks through data of article PMC7311396, “Ultra-large chemical libraries for the discovery of high-affinity peptide binders” (Nature Communications, 2020).

This test deals with FITC-labeled NB.1. Put plainly: fluorescence polarisation; direct fluorescence anisotropy: 1:1 dilution series of 14-3-3γ (starting at 100 μM) into FITC-labeled peptide (10 nM or 50 nM); 10 mM HEPES pH 7.4, 150 mM NaCl, 0.1% Tween 20, 0.1% BSA; ambient temperature. (In general: Polarisation of emitted light reports the rotation of a fluorescent probe.)

B1: 14-3-3γ (natural protein)
chain: MVDREQLVQKARLAEQAERYDDMAAAMKNVTELNEPLSNEERNLLSVAYKNVVGARRSSWRVISSIEQKTSADGNEKKIEMVRAYREKIEKELEAVCQDVLSLLDNYLIKNCSETQYESKVFYLKMKGDYYRYLAEVATGEKRATVVESSEKAYSEAHEISKEHMQPTHPIRLGLALNYSVFYYEIQNAPEQACHLAKTAFDDAIAELDTLNEDSYKDSTLIMQLLRDNLTLWTSDQQDDDGGEGNN
In turn, B1 displayed a fold weaker binding than the 14-3-3γ-binding peptides of 10000 fold.
